To fix the notation:
T1: MICA*001 expressed on transfected cells (human)
T1 sequence: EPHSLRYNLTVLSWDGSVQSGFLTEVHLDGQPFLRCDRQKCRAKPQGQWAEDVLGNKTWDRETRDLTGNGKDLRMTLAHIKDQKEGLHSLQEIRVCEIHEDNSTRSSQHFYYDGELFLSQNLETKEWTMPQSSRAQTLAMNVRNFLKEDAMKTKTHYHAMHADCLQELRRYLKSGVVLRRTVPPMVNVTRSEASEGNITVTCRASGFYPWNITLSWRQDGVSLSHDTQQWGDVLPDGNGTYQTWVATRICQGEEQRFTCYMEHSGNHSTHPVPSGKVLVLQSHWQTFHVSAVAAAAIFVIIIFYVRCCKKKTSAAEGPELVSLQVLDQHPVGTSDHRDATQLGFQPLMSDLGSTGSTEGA

B1: CHG1-M-MIA-6E4 (antibody, from a related filing, V domains shown)
VH: EVQLVESGGALVKPGGSLKLSCAASGFTFSYYAMSWVRQTPEKRLEWVATISRGGNYIYYTDSVKGRFTISRDNAKNTLYLQMTSLRSEDTAMFYCASISDYDGAWLAYWGQGTTLTVSS
VL: DVLMTQTPLSLPVSLGDQASISCRSSQSIIHTNGNTYLEWYLQKPGQSPKLLIYKISNRFSGVPDRFSGSGSGTDFTLKISRVEAEDLGVYYCFQGSHVPWTFGGGTKLEIKR
B2: CHG1-M-MIA-19E9 (antibody, V domains shown)
VH: DVQLQESGPGLVKPSQSLSLTCTVTGYSITSDYAWNWIRQFPGNKLEWMGFVSYSGTTKYNPSLKSRISITRDTSENQFFLQLNSVTSEDTATYYCARGYGFDYWGQGTTLTVSS
VL: EIVLTQSPTTMAASPGEKITITCSATSSISSIYFHWYQQRPGFSPKLLIYRTSNLASGVPARFSGSGSGTSYSLTIGTMEAEDVATYYCQQGTTIPFTFGSGTKLEIK
B3: CHG1-M-MIA-18E8 (antibody, from a related filing, V domains shown)
VH: DVQLQESGPDLVNPSQSLSLICTVTGYSITSDYSWHWIRQFPGNKLEWMGNIHYSGRINYNPSLRSRISITRDTSKNQFFLQLISVTTEDTATYYCATRRTFGNFEDYWGQGTTLTVSS
VL: QIVLSQSPATLSVSPGEKVTMTCRSSSSVNYMHWYQQKPGSSPKPWIYATSTLASGVPARFSGSGSGTSYSLTISRVEAEDAATYYCQQWSSNPLTFGAGTKLELK
B4: CHG1-M-MIA-10F3 (antibody, from a related filing, V domains shown)
VH: QVQLQQSAAELARPGASVKMSCKASGYTFTSYTMHWVKQRPGQGLEWIGYINPSSGYTEYNQKFKDKTTLTVDKSSTTSYMQLSSLTSDNSAVYYCARGGDWDVDWFVYWGQGTLVTVSA
VL: QIVLTQSPAIMSASPGEKVTITCSASSSISYMHWFQQKPGTSPKLWIYSTSKLASGVPARFSGSGSGTSHSLTISRMEAEDAATYYCQHRSTYPFTFGSGTKLEIK
B5: CHG1-M-MIA-12A10 (antibody, from a related filing, V domains shown)
VH: QVQLQQSGADLVRPGASVRLSCRASGYSFTNYWMNWVKQRPGQGLEWIGMIHPSDSETRLNQKFKDKATLTVDKSSNTAYMQLSSPTSEDSAIYYCARDDFFTMDYWGQGTSVTVSS
VL: DILLTQSPAILSVSPGERVSFSCRASQNIVTSIHWYQQSTNGSPRLLIKYASESISGIPSRFSGSGSGTDFTLTINSVESEDVADYYCQQSNIWPLTFGAGTKLELK
B6: CHG1-M-MIA-14B4 (antibody, from a related filing, V domains shown)
VH: QVQLQQPGAELVRPGASVKLSCKASGYSFTSYWMNWMKQRPGQGLEWIGMIHPSDSETRLNQKFKDKATLTVDKSSSTAYMQLNSPTSEDSAVYYCAREMGPYTLDYWGQGTSVTVSS
VL: B5 VL with E17A, V30D, S39R, T74S, V83I, I93Y

The values that follow come from patent US20150191542A1.

Where a chain is given by its changes, count along the chain named.

The first assay deals with T1, MICA*001 expressed on transfected cells (human). The assay can be described thus: flow cytometry, MFI against antibody concentration on C1R-MICA*01 cells. In general terms: In flow cytometry, cells or beads pass a laser one at a time.
Take B1: the EC50 (read off the curve) (commonly the concentration at which the effect is half-maximal) was determined as 0.6 µg/mL.
Same read-out and setting: the same measure for B2: 1 µg/mL.

The target in a further assay is MICA*004 expressed on C1R transfectant cells (human) (UniProt Q29983). Briefly: flow cytometry, MFI against antibody concentration on C1R-MICA*04 cells.
Chain of MICA*004 expressed on C1R transfectant cells (human) (Q29983 other isoform, or with tags, fused parts or gaps limits assumed): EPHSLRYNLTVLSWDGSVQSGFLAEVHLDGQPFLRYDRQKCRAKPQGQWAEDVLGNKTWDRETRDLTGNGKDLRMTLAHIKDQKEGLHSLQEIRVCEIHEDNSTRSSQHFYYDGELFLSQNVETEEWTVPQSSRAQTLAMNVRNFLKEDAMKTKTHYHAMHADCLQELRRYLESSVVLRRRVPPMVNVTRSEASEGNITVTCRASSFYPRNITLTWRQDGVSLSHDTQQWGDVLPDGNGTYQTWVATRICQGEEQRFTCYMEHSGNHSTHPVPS
In turn, B3 registered an EC50 (read off the curve) of 0.2 µg/mL.
As to B4, the half-maximal effective concentration (EC50 (read off the curve)) turned out to be 0.2 µg/mL.
B5 displayed an EC50 (read off the curve) of 0.3 µg/mL.
Still for that read-out and setting: the same measure for B6: 0.2 µg/mL.

The target in the next assay is MICA*007 expressed on C1R transfectant cells (human) (UniProt Q29983). The assay can be described thus: flow cytometry, MFI against antibody concentration on C1R-MICA*07 cells.
Molecule B1 registered an EC50 (read off the curve) of 1 µg/mL.
B3 registered an EC50 (read off the curve) of 0.3 µg/mL.
Still for that read-out and setting: the same measure for B5: 1 µg/mL.

A further assay deals with MICA*008 expressed on C1R transfectant cells (human) (UniProt Q29983). Briefly: flow cytometry, MFI against antibody concentration on C1R-MICA*08 cells.
As for B3, the EC50 (read off the curve) turned out to be 0.3 µg/mL.
Turning to B4, the EC50 (read off the curve) was 0.3 µg/mL.
Same read-out and setting: for B5 the value was 0.3 µg/mL.
Same read-out and setting: the same measure for B6: 0.3 µg/mL.
